The experiment deals with mouse PD-1 wild type expressed on CHO cells (mouse) (UniProt Q02242). Put plainly: biomembrane force probe (BFP), force-ramp spectroscopy (rupture force); PD-L1- or PD-L2-coated glass bead on a micropipette-aspirated RBC against a CHO cell expressing PD-1; continuous retraction until bond rupture; nominal loading rate 1000 pN/s; BFP spring constant 0.3 pN/nm.
mouse PD-1 wild type expressed on CHO cells (mouse), sequence (Q02242 25-288): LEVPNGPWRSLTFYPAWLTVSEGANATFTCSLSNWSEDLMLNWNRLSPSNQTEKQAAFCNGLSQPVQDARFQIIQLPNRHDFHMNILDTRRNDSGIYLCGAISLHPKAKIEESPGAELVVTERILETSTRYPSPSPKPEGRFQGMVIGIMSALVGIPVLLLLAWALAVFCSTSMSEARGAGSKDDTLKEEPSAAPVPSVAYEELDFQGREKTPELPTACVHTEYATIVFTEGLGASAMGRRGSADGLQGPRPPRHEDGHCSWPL

mouse PD-L2 with C-terminal biotin, sequence (Q9WUL5 20-221): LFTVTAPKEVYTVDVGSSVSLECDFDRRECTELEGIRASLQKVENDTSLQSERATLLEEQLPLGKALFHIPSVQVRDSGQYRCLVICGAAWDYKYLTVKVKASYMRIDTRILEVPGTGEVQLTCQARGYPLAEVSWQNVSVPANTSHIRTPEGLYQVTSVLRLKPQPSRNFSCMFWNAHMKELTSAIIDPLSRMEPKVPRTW

Substance “mouse PD-L2 with C-terminal biotin (from UniProt Q9WUL5 20-221) (ligand)” had an F1/2 (force at which 50% of the bonds rupture) of 12.1 pN.

These data come from publication PMC11437077.
